Consider six variants from FireProtDB (doi:10.1021/bi000849s).

B1: Lysozyme C, P61626 (parent)
chain: MKALIVLGLVLLSVTVQGKVFERCELARTLKRLGMDGYRGISLANWMCLAKWESGYNTRATNYNAGDRSTDYGIFQINSRYWCNDGKTPGAVNACHLSCSALLQDNIADAVACAKRVVRDPQGIRAWVAWRNRCQNRDVRQYVQGCGV

The variants in this data set derive from B1. The following applies: Homo sapiens, Thermal, DSC, reversible: yes, structure 1LZ1, whole UniProt chain shown; for ddG of mutation (higher = less stable) / unfolding free energy: 65 °C.
Where [1] appears, read: pH 2.2, glycine hydrochloride 0.05 M.
The mark [2] stands for this setting: pH 2.3, glycine hydrochloride 0.05 M, KCl 0.2 M.
Setting [3] is: pH 4.5, sodium acetate 0.02 M, KCl 0.2 M.

For orientation: Tm means the temperature at the midpoint of the melting transition. In the case of MKALIVLGLVLLSVTVQGKVFERCELARTLKRLGMDGYRGISLANWMCLAKWESGYNTRATNYNAGNRSTDYGIFQINSRYWCNDGKTPGAVNACHLSCSALLQDNIADAVACAKRVVRDPQGIRAWVAWRNRCQNRDVRQYVQGCGV, under setting [1], the Tm came out at 57.5 °C and the “change of melting temperature, mutant - wild type (higher = more stable)” value (shortened to “change of melting temperature, mutant”) is 0 °C. For the same variant, for the setting “pH 4, sodium acetate 0.02 M”, the “ddG of mutation (higher = less stable)” value is 1 kcal/mol; the unfolding free energy turned out to be 4.42 kcal/mol; the Tm is 77.4 °C; the “change of melting temperature, mutant” value is -2.7 °C.

Take MKALIVLGLVLLSVTVQGKVFERCELARTLKRLGMNGYRGISLANWMCLAKWESGYNTRATNYNAGDRSTDYGIFQINSRYWCNDGKTPGAVNACHLSCSALLQDNIADAVACAKRVVRDPQGIRAWVAWRNRCQNRDVRQYVQGCGV: under setting [1], the Tm amounted to 56 °C and the “change of melting temperature, mutant” value was -1.5 °C. Moreover, where the note is “pH 4, sodium acetate 0.02 M”, the Tm turned out to be 75.5 °C and the “change of melting temperature, mutant” value was -4.6 °C.

As for MKALIVLGLVLLSVTVQGKVFERCELARTLKRLGMDGYRGISLANWMCLAKWESGYNTRATNYNAGDRSTDYGIFQINSRYWCNNGKTPGAVNACHLSCSALLQDNIADAVACAKRVVRDPQGIRAWVAWRNRCQNRDVRQYVQGCGV, the Tm runs as follows: under setting [1], 56.8 °C; under setting [2], 55.2 °C; (pH 4, sodium acetate 0.02 M) 74 °C; under setting [3], 72.5 °C. Also, the “change of melting temperature, mutant” value was -0.7 °C under setting [1]; -1 °C under setting [2]; -6.1 °C (pH 4, sodium acetate 0.02 M); -5.2 °C under setting [3]. Besides, the “ddG of mutation (higher = less stable)” value is, setting by setting: (pH 4, sodium acetate 0.02 M) 2.25 kcal/mol; under setting [3], 1.7 kcal/mol. Moreover, the unfolding free energy was determined as 3.18 kcal/mol (pH 4, sodium acetate 0.02 M) and 2.37 kcal/mol under setting [3].

As to MKALIVLGLVLLSVTVQGKVFERCQLARTLKRLGMDGYRGISLANWMCLAKWESGYNTRATNYNAGDRSTDYGIFQINSRYWCNDGKTPGAVNACHLSCSALLQDNIADAVACAKRVVRDPQGIRAWVAWRNRCQNRDVRQYVQGCGV, under setting [1], the Tm was 57.8 °C and the “change of melting temperature, mutant” value was 0.3 °C. Moreover, under setting [2], the Tm worked out at 54.6 °C and the “change of melting temperature, mutant” value is -1.6 °C. Further, under “pH 4, sodium acetate 0.02 M”, the “ddG of mutation (higher = less stable)” value worked out at 1.43 kcal/mol; the unfolding free energy was 3.99 kcal/mol; the Tm was 76.2 °C; the “change of melting temperature, mutant” value was -3.9 °C. Further, under setting [3], the “ddG of mutation (higher = less stable)” value came out at 1.29 kcal/mol; the unfolding free energy amounted to 2.77 kcal/mol; the Tm is 75.5 °C; the “change of melting temperature, mutant” value was -2.2 °C.

MKALIVLGLVLLSVTVQGKVFERCELARTLKRLGMDGYRGISLANWMCLAKWESGYNTRATNYNAGDRSTDYGIFQINSRYWCNDGKTPGAVNACHLSCSALLQDNIADAVACAKRVVRNPQGIRAWVAWRNRCQNRDVRQYVQGCGV: the Tm by setting is: under setting [1], 58.1 °C; under setting [2], 56.7 °C; under setting [3], 77.9 °C. Also, the “change of melting temperature, mutant” value was determined as 0.6 °C under setting [1], 0.5 °C under setting [2] and 0.2 °C under setting [3]. Besides, the “ddG of mutation (higher = less stable)” value is 0.67 kcal/mol (pH 4, sodium acetate 0.02 M) and -0.07 kcal/mol under setting [3]. Also, the unfolding free energy (pH 4, sodium acetate 0.02 M) was determined as 4.76 kcal/mol and the unfolding free energy under setting [3] was determined as 4.13 kcal/mol.

As to MKALIVLGLVLLSVTVQGKVFERCELARTLKRLGMDGYRGISLANWMCLAKWESGYNTRATNYNAGDRSTDYGIFQINSRYWCNDGKTPGAVNACHLSCSALLQDNIADAVACAKRVVRDPQGIRAWVAWRNRCQNRNVRQYVQGCGV, under setting [1], the Tm amounted to 57.8 °C and the “change of melting temperature, mutant” value came out at 0.3 °C. In addition, under setting [2], the Tm is 56.9 °C and the “change of melting temperature, mutant” value amounted to 0.7 °C. Besides, for the setting “pH 4, sodium acetate 0.02 M”, the “ddG of mutation (higher = less stable)” value came out at 0.67 kcal/mol; the unfolding free energy was found to be 4.76 kcal/mol; the Tm was found to be 78.3 °C; the “change of melting temperature, mutant” value is -1.8 °C. Further, under setting [3], the “ddG of mutation (higher = less stable)” value is -0.05 kcal/mol; the unfolding free energy was 4.13 kcal/mol; the Tm is 77.8 °C; the “change of melting temperature, mutant” value is 0.1 °C.
